Test results: PMC8478808 (Stroke, 2021)

Molecular target: T1, recombinant mouse CD200R1 Fc chimera (mouse, UniProt Q9ES57 26-238)
T1 sequence (looked up): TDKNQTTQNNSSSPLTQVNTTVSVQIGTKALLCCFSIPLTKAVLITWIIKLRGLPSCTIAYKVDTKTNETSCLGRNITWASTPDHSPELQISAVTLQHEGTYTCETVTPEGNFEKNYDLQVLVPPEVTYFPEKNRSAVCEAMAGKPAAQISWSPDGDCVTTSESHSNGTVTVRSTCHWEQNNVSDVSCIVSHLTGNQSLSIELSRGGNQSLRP
Test: ELISA

B1: biotinylated recombinant mouse CD200-Fc Chimera (carrier-free) (Fc fusion, UniProt O54901 31-232, looked up)
chain: QVEVVTQDERKALHTTASLRCSLKTSQEPLIVTWQKKKAVSPENMVTYSKTHGVVIQPAYKDRINVTELGLWNSSITFWNTTLEDEGCYMCLFNTFGSQKVSGTACLTLYVQPIVHLHYNYFEDHLNITCSATARPAPAISWKGTGTGIENSTESHFHSNGTTSVTSILRVKDPKTQVGKEVICQVLYLGNVIDYKQSLDKG
modifications: biotin (biotinylated; site not stated)
B1: binds.
